Laboratory results taken from paper doi:10.1101/2025.10.20.683411 (bioRxiv, 2025).

Tests used:
[1] = target: the molecule itself; experiment: fluorescence microscopy of particles formed by one purified labelled protein
[2] = target: yNup100FG (aa1-580) (yeast, UniProt Q02629 1-580, fluorescein-5-maleimide label (labelled protein mixed with unlabelled protein)); experiment: fluorescence microscopy of particles formed by mixed purified labelled proteins
[3] = target: yNup116FG (aa1-725) (yeast, UniProt Q02630 1-725, fluorescein-5-maleimide label (labelled protein mixed with unlabelled protein)); experiment: as above
[4] = target: T1, hNup153 (aa875-1475) (human, UniProt P49790 875-1475, fluorescein-5-maleimide label (labelled protein mixed with unlabelled protein)); experiment: as above
T1 sequence: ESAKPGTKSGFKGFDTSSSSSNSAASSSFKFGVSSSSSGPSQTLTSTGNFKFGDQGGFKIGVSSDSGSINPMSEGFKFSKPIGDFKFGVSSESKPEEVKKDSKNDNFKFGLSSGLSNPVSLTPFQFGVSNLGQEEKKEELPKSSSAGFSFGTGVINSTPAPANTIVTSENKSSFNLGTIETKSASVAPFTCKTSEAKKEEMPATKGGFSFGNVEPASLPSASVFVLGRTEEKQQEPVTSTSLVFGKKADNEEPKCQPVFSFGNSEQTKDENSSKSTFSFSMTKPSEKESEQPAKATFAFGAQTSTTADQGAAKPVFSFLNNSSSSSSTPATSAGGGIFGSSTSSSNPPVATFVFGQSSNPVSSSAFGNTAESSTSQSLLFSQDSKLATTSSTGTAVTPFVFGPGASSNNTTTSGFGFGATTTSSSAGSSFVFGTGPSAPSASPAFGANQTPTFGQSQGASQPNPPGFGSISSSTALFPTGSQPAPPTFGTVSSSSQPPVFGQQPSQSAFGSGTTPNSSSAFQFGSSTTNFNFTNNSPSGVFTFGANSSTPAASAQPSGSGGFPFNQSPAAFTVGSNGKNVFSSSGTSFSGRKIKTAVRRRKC

[5] = target: the molecule itself; experiment: as above

Measured: binding result

B1: DNAJB6 isoform b, wildtype (natural protein)
chain: not shown
modifications: Alexa Fluor 594 C5-maleimide label (labelled protein mixed with unlabelled protein)
not listed: [5]
binds: all other assays above

B2: DNAJB2 isoform a (natural protein, human)
chain: MASYYEILDVPRSASADDIKKAYRRKALQWHPDKNPDNKEFAEKKFKEVAEAYEVLSDKHKREIYDRYGREGLTGTGTGPSRAEAGSGGPGFTFTFRSPEEVFREFFGSGDPFAELFDDLGPFSELQNRGSRHSGPFFTFSSSFPGHSDFSSSSFSFSPGAGAFRSVSTSTTFVQGRRITTRRIMENGQERVEVEEDGQLKSVTINGVPDDLALGLELSRREQQPSVTSRSGGTQVQQTPASCPLDSDLSEDEDLQLAMAYSLSEMEAAGKKPADVFC
modifications: Alexa Fluor 594 C5-maleimide label (labelled protein mixed with unlabelled protein)
not listed: [1]
binds: all other assays above

B3: DNAJB8 (natural protein, human)
chain: MANYYEVLGVQASASPEDIKKAYRKLALRWHPDKNPDNKEEAEKKFKLVSEAYEVLSDSKKRSLYDRAGCDSWRAGGGASTPYHSPFDTGYTFRNPEDIFREFFGGLDPFSFEFWDSPFNSDRGGRGHGLRGAFSAGFGEFPAFMEAFSSFNMLGCSGGSHTTFSSTSFGGSSSGSSGFKSVMSSTEMINGHKVTTKRIVENGQERVEVEEDGQLKSVTVNGKEQLKWMDSKC
modifications: Alexa Fluor 594 C5-maleimide label (labelled protein mixed with unlabelled protein)
not listed: [1]
binds: all other assays above
